Values of other authors in PMC7955094.

Target: His19 (UniProt position 19, ILSALHFMAWT)
Conditions: membrane-bound BM2 tetramer, wild type

Influenza B virus M2 protein (BM2) proton channel (Influenza B virus (this article's own samples use strain B/Maryland/1/2001; the strain of the quoted pKa study is not stated))
pKa: 5.1
